# Results: patent US20110091971A1, “Differentiation of Pluripotent Stem Cells” (priority 2008, published 2011)
# Substitutions are numbered along the chain they refer to. Values joined by “and” are separate entries in the source; they are usually repeats but may differ in a detail not shown here. Identical values can stand only once. “Also recorded” adds a separate entry of the source.
# B1: OriGene wildtype: wildtype human activin A expressed from commercial OriGene construct (Cat. No. TC118774, pCMV6-XL4); supernatant used as positive control (protein, UniProt P08476 311-426, looked up)
# Inhibin beta A chain: GLECDGKVNICCKKQFFVSFKDIGWNDWIIAPSGYHANYCEGECPSHIAGTSGSSLSFHSTVINHYRMRGHSPFANLKSCCVPTKLRPMSMLYYDDGQNIIKKDIQNMIVEECGCS
# modifications: Inhibin beta A chain activin A homodimer
# B2: ACTN16: activin A variant peptide, SEQ ID 17 (protein)
# chain: B1 Inhibin beta A chain with I10L, F16L, Y39H, E41S, E43L, A75S, N76Q, L77M, K78G, S79A
# B3: ACTN35: activin A variant peptide, SEQ ID 36 (protein)
# chain: B1 Inhibin beta A chain with I10L, F16D, Y39R, E41S, E43K, A75S, N76D, L77M, K78G
# System: H1 or H9 human embryonic stem cells
# Test: Activin A bioassay: differentiation of human embryonic stem cells to definitive endoderm, cell number and SOX17 intensity by high content analysis (96-well, four days);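 as to Cell Number average: Raw total cell count per well from high content imaging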;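 as to Sox 17 Intensity average: total fluorescence of the cell multiplied by cell area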
# Assay type: cell-based
# Excerpt: Activin A is an important mediator of differentiation in a broad range of cell types. […] A bioassay that measures this differentiation in human embryonic stem cells was adapted in miniaturized format to 96-well plates for screening purposes. Validation was completed using treatment with commercial sources of activin A and Wnt3a recombinant proteins and measuring protein expression of the transcription factor SOX17, which is considered a representative marker of definitive endoderm.
# Live Cell Assay: Briefly, clusters of H1 or H9 human embryonic stem cells were grown on growth factor-reduced MATRIGEL™ (Invitrogen; Cat #356231)-coated tissue culture plastic. Cells were passaged using collagenase (Invitrogen; Cat # Cat #17104-019) treatment and gentle scraping, washed to remove residual enzyme, and plated in a ratio of 1:1 (surface area) on growth factor-reduced MATRIGEL™-coated 96-well plates (black, 96-well; Packard ViewPlates; Cat #6005182). Cells were allowed to attach as clusters and then recover log phase growth over a 1 to 3 day period, feeding daily with MEF conditioned medium supplemented with 8 ng/ml bFGF (R&D Systems; Cat #233-FB).
# The assay was initiated by washing the wells of each plate twice in PBS and followed by adding an aliquot (100 μl) of test sample in DMEM:F12 basal medium (Invitrogen; Cat #11330-032) to each well. Test conditions were performed in triplicate, feeding […] by aspirating and replacing the medium from each well with test samples over a total four day assay period. On the first and second day of assay, test samples added to the assay wells were diluted in DMEM:F12 with 0.5% FCS (HyClone; Cat #SH30070.03) and 20 ng/ml Wnt3a (R&D Systems; Cat #1324-WN). On the third and fourth day of assay, test samples added to the assay wells were diluted in DMEM:F12 with 2% FCS, without any Wnt3a. Positive control samples consisted of recombinant human activin A (Peprotech; Cat #120-14) added at a concentration of 100 ng/ml throughout assay plus Wnt3a (20 ng/ml) on days 1 and 2. Negative control samples omitted treatment with both activin A and Wnt3a.
# High Content Analysis: At the conclusion of four days of culture, assay plates were washed twice with PBS, fixed with 4% paraformaldehyde at room temperature for 20 minutes, then washed three times with PBS and permeabilized with 0.5% Triton X-100 for 20 minutes at room temperature. Cells were washed again three times with PBS and blocked with 4% chicken serum (Invitrogen; Cat #16110082) in PBS for 30 minutes at room temperature. Primary antibody (goat anti-human SOX17; R&D Systems; cat #AF1924) was diluted 1:100 in 4% chicken serum and added to each well for one hour at room temperature. Alexa Fluor 488 conjugated secondary antibody (chicken anti-goat IgG; Molecular Probes; Cat #) was diluted 1:200 in PBS and added to each sample well after washing three times with PBS. To counterstain nuclei, 4 μg/ml Hoechst 33342 (Invitrogen; Cat #H3570) was added for ten minutes at room temperature. Plates were washed once with PBS and left in 100 μl/well PBS for imaging.
# Imaging was performed using an IN Cell Analyzer 1000 (GE Healthcare) utilizing the 51008bs dichroic for cells stained with Hoechst 33342 and Alexa Fluor 488. Exposure times were optimized from positive control wells and from untreated negative control wells stained with secondary antibody alone. Images from 15 fields per well were acquired to compensate for any cell loss during the bioassay and subsequent staining procedures. Measurements for total cell number and total SOX17 intensity were obtained from each well using IN Cell Developer Toolbox 1.7 (GE Healthcare) software. Segmentation for the nuclei was determined based on grayscale levels (baseline range 100-300) and nuclear size. Averages and standard deviations were calculated for each replicate data set. […]
# [1] = supernatant concentration 1x, assay dilution 1:20
# [2] = supernatant concentration 1x, assay dilution 1:20, control = R&D Sys Activin A 100 ng/ml on same plate
# [3] = supernatant concentration 10x, assay dilution 1:20
# [4] = concentrated supernatant (10x; ACTD3 4x), assay dilution 1:20
# [5] = supernatant concentration 10x, assay dilution 1:20, control = R&D Sys Activin A 100 ng/ml on same plate
# [6] = supernatant concentration 10x, assay dilution 1:40
# [7] = supernatant concentration 10x, assay dilution 1:40, control = R&D Sys Activin A 100 ng/ml on same plate
molecule,measurement,setting,value
R&D Sys Activin A,Cell Number average,assay concentration 6.25 ng/ml,5540
same,Sox 17 Intensity % of control,assay concentration 6.25 ng/ml,13%
same,Sox 17 Intensity average,assay concentration 6.25 ng/ml,5.49E+06
same,Cell Number average,assay concentration 12.5 ng/ml,5784
same,Sox 17 Intensity % of control,assay concentration 12.5 ng/ml,19%
same,Sox 17 Intensity average,assay concentration 12.5 ng/ml,8.10E+06
same,Cell Number average,assay concentration 25 ng/ml,6212
same,Sox 17 Intensity % of control,assay concentration 25 ng/ml,39%
same,Sox 17 Intensity average,assay concentration 25 ng/ml,1.69E+07
same,Cell Number average,assay concentration 50 ng/ml,6218
same,Sox 17 Intensity % of control,assay concentration 50 ng/ml,33%
same,Sox 17 Intensity average,assay concentration 50 ng/ml,1.45E+07
same,Cell Number average,assay concentration 100 ng/ml,8680
same,Sox 17 Intensity % of control,assay concentration 100 ng/ml,100%
same,Sox 17 Intensity average,assay concentration 100 ng/ml,4.37E+07
same,Cell Number average,assay concentration 200 ng/ml,12032
same,Sox 17 Intensity % of control,assay concentration 200 ng/ml,285%
same,Sox 17 Intensity average,assay concentration 200 ng/ml,1.25E+08
same,Cell Number average,assay concentration 400 ng/ml,13961
same,Sox 17 Intensity % of control,assay concentration 400 ng/ml,396%
same,Sox 17 Intensity average,assay concentration 400 ng/ml,1.73E+08
B1,improvement of functional activity on concentrating the supernatant,"HEK293-E supernatant, 4× concentrated versus 1× (neat)",approximately 1.5 fold
same,activity (SOX17 intensity) of supernatants,"HEK293-E supernatants, OriGene in pCMV6-XL4 compared with ACTN 1 in pcDNA3.1(−)",much greater activity; also recorded: superior
same,Cell Number average,[1],979
same,Sox 17 Intensity average,[1],1.819E+07
same,Sox 17 Intensity % of control,[2],9.9%
same,Cell Number average,[3],5548
same,Sox 17 Intensity average,[3],2.035E+08
same,Cell Number average,"supernatant concentration 10x, assay dilution 1:20, assay plates #007, #009, #010, listed as OriGENE WT",12727 and 7061 and 11356
same,Cell Number average,"supernatant concentration 50x, assay dilution 1:20, assay plates #008, #009, listed as OriGENE WT",12200 and 9025
same,Sox 17 Intensity % of control,"supernatant concentration 50x, assay dilution 1:20, control = R&D Sys Activin A 100 ng/ml on same plate, listed as OriGENE WT",409.0% and 285.3%
B2,Cell Number average,[4],8775
same,Sox 17 Intensity average,[4],3.89E+07
same,Sox 17 Intensity % of control,"concentrated supernatant (10x; ACTD3 4x), assay dilution 1:20, control = R&D Sys Activin A 100 ng/ml",89%
same,higher potency of supernatant concentrated 10× relative to corresponding unconcentrated supernatant,"primary screening, SOX17 expression, H1 cells",4 fold
same,Cell Number average,[1],7068
same,Sox 17 Intensity average,[1],1.36E+07
same,Sox 17 Intensity % of control,[2],52.7%
same,Cell Number average,[3],11118
same,Sox 17 Intensity average,[3],5.55E+07
same,Sox 17 Intensity % of control,[5],214.4%
same,Cell Number average,[6],11064
same,Sox 17 Intensity average,[6],6.46E+07
same,Sox 17 Intensity % of control,[7],249.3%
B3,Cell Number average,[1],8553
same,Sox 17 Intensity average,[1],7.94E+04
same,Sox 17 Intensity % of control,[2],0.3%
same,Cell Number average,[3],6805
same,Sox 17 Intensity average,[3],1.26E+06
same,Sox 17 Intensity % of control,[5],4.3%
same,Cell Number average,[6],7926
same,Sox 17 Intensity average,[6],6.76E+05
same,Sox 17 Intensity % of control,[7],2.3%
